Consider two substances from article doi:10.1101/2024.01.22.576614.

What all share (assay): two-hybrid
In experiment [1] the target is Leu zipper (Zip).
The target in experiment [2] is Leu zipper (Zip). This is another data set of the same source.
For experiment [3], the target named is cAMP-binding transcriptional regulator Clr (Sinorhizobium meliloti).

Like-named read-outs stand apart in the source and are kept apart here.

Chain of Leu zipper (Zip) (P03069 whole entry): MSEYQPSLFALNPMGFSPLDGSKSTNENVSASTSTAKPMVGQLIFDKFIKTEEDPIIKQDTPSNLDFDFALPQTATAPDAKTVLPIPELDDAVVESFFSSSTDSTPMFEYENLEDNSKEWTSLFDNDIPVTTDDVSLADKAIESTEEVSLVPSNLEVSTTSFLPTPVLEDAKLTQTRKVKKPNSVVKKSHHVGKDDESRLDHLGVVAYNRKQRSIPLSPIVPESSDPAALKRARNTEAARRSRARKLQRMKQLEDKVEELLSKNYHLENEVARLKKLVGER

Regarding Leu zipper (Zip) (domain or fragment), the figures for the BACTH β-galactosidase activity in experiment [1] and in experiment [2] were 1640 Miller-Units and 1370 Miller-Units, respectively. In experiment [3], “LysR-type transcriptional regulator Smc01817 (natural protein)” displayed a BACTH β-galactosidase activity of 460 MU.
